# From patent publication US20110033935
# Molecular target: T1, HSV2
# T1 chain: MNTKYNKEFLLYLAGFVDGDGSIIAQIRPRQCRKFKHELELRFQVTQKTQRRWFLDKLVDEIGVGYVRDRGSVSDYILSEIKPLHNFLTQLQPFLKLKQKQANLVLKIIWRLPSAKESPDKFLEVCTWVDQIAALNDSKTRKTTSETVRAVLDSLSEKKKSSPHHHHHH
protein,measurement,value
HSV1 (protein) MNTKYNKEFLLYLAGFVDGDGSIIAQIKPRQSCKFKHELRLQFQVTQKTQRRWFLDKLVDEIGVGYVRDRGSVSDYILSEIKPLHNFLTQLQPFLKLKQKQANLVLKIIWRLPSAKESPDKFLEVCTWVDQIAALNDSKTRKTTSETVRAVLDSLSEKKKSSPHHHHHH,"cleavage of a linearized DNA substrate with the intended non-palindromic recognition sequence (SEQ ID NO: 28, HSV UL36 gene) by the 1:1 mixture",each rationally-designed meganuclease heterodimer cleaves its intended DNA site
